Assay results reported in patent CN113461818A (UNIV XUZHOU MEDICAL, dated 2021).

Biological target: T1, CD276抗原 (UniProt Q5ZPR3 29-466, limits assumed)
T1 construct: also called CD276靶抗原; CD276目的蛋白
T1 sequence (looked up): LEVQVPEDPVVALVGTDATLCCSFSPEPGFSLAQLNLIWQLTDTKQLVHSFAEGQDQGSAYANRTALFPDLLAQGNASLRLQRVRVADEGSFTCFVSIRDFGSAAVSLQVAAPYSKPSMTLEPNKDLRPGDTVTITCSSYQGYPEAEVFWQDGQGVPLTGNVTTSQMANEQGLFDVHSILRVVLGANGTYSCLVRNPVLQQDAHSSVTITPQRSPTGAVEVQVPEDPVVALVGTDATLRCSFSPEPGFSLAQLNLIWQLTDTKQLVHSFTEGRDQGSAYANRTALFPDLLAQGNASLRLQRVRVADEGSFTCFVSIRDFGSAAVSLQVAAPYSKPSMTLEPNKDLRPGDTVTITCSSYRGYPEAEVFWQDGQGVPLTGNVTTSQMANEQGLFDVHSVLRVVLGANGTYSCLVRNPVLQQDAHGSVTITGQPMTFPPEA
Experiment: phage ELISA on coated antigen, TMB, OD450nm

B1: CD276-03 monoclonal phage (clone 03 scFv displayed on phage) (scFv)
scFv: QVQLVQSGGGVVQPGRSLRLSCSASGFTFNSHGMHWVRQAPGKGLEWVGVIWYDGSNAYYADSAKGRFTISRDNSKNSVYLQLNSLGVEDTALYYCAKSDRPHPMGFYYYMDVWGQGTTVTVSSGGGGSGGGGSQSALTQPASVSGSPGQSITISCTGTSSDVGGYNYVSWYQQHPGKAPKLMIYDVSNRPSGVSNRFSGSKSGNTASLTISGLQAEDEADYYCSSYTSSSTLVFGGGTK
notes: The phage coat protein fusion partner is not described; also called 克隆03
Q: Does B1 bind?
A: no binding
